From patent US20190218283A1 (published 2019) come the findings set out here.

This test concerns the target murine pro-myostatin (proGDF8) (mouse, UniProt O08689 25-376). As to the kind of experiment: cell-based or functional assay.

B1: Ab6 (Ab5 IgG4 containing the corrected germline residues) (antibody, V domains shown)
VH: QVQLVESGGGVVQPGRSLRLSCAASGFAFSSYGMHWVRQAPGKGLEWVAVISYDGNNKYYADSVKGRFTISRDNSKNTLYLQMNSLRAEDTAVYYCARDLLVRFLEWSHKYGMDVWGQGTTVTVSS
VL: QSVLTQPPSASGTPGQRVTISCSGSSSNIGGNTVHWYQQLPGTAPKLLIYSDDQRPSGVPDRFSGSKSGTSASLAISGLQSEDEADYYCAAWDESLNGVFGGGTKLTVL
On to B1, for which the “Activity Assay - 293T cells EC50” value was found to be 0.307 nM.
